Patent US6482933 (Takeda / Millennium, dated 2002)

Target: T1, CARD-4L epitope tagged with HA (pCI-CARD-4LcHA) (human, UniProt Q9Y239 1-953)
T1 construct: Expressed in 293T cells from pCI; in cell lysate
T1 sequence: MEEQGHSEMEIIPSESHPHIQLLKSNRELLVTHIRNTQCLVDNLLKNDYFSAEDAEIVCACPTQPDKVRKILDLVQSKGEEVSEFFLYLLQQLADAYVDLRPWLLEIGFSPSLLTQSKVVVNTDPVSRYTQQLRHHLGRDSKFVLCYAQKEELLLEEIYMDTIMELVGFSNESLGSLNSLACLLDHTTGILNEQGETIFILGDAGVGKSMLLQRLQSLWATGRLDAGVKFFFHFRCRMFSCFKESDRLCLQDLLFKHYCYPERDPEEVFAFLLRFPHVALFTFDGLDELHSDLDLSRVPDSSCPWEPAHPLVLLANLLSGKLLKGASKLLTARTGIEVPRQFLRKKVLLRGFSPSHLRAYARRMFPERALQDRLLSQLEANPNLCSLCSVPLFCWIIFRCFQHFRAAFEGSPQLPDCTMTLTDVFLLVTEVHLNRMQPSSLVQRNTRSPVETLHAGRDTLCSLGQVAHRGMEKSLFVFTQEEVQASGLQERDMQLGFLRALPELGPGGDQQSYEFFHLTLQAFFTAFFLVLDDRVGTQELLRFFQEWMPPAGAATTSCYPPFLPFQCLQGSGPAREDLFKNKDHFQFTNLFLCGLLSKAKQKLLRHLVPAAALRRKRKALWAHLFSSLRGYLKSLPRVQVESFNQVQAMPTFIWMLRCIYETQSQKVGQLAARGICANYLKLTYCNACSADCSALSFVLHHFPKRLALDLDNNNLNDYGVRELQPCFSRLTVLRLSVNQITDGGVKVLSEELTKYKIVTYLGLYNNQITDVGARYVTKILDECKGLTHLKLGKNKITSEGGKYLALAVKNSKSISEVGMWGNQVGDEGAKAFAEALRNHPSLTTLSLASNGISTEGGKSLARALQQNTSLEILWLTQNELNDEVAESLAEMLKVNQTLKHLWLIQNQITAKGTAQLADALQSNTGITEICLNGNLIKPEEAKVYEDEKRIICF
Assay: coimmunoprecipitation from cotransfected 293T cells (anti-MYC IP, anti-HA Western blot)
Protocol: Cells from each transfected line were lysed and an immunoprecipitation procedure was carried out on each lysate with an anti-MYC epitope tag antibody to precipitate the CARD-4LcHA expressed by each cell line and any physically associated proteins.

binding result: no binding
B1: CARD-3 lacking the CARD domain (SEQ ID NO:6) epitope tagged with MYC (pCI-CARD3noCARDnMYC) (other, not shown: small tags and cut ends)
chain: MNGEAICSALPTIPYHKLADLRYLSRGASGTVSSARHADWRVQVAVKHLHIHTPLLDSERKDVLREAEILHKARFSYILPILGICNEPEFLGIVTEYMPNGSLNELLHRKTEYPDVAWPLRFRILHEIALGVNYLHNMTPPLLHHDLKTQNILLDNEFHVKIADFGLSKWRMMSLSQSRSSKSAPEGGTIIYMPPENYEPGQKSRASIKHDIYSYAVITWEVLSRKQPFEDVTNPLQIMYSVSQGHRPVINEESLPYDIPHRARMISLIESGWAQNPDERPSFLKCLIELEPVLRTFEEITFLEAVIQLKKTKLQSVSSAIHLCDKKKMELSLNIPVNHGPQEESCGSSQLHENSGSPETSRSLPAPQDNDFLSRKAQDCYFMKLHHCPGNHSWDSTISGSQRAAFCDHKTIPCSSAIINPLSTAGNSERL
notes: also called CARD-3 lacking its CARD domain
